What was measured:
BSA [1] = biological target: BSA (UniProt P02769); test: phage ELISA, control well (BSA blocking solution only); phage 1 ng/well; 100% = SEQ 5 phage at 710 ng/well
BSA [2] = biological target: BSA (UniProt P02769); test: phage ELISA, control well (BSA blocking solution only); phage 4 ng/well; 100% = SEQ 5 phage at 710 ng/well
BSA [3] = biological target: BSA (UniProt P02769); test: phage ELISA, control well (BSA blocking solution only); phage 22 ng/well; 100% = SEQ 5 phage at 710 ng/well
BSA [4] = biological target: BSA (UniProt P02769); test: phage ELISA, control well (BSA blocking solution only); phage 132 ng/well; 100% = SEQ 5 phage at 710 ng/well
BSA [5] = biological target: BSA (UniProt P02769); test: phage ELISA, control well (BSA blocking solution only); phage 859 ng/well; 100% = SEQ 5 phage at 710 ng/well
BSA [6] = biological target: BSA (UniProt P02769); test: phage ELISA, control well (BSA blocking solution only); phage 0 ng/well (printed); 100% = SEQ 5 phage at 710 ng/well
BSA [7] = biological target: BSA (UniProt P02769); test: phage ELISA, control well (BSA blocking solution only); phage 134 ng/well; 100% = SEQ 5 phage at 710 ng/well
BSA [8] = biological target: BSA (UniProt P02769); test: phage ELISA, control well (BSA blocking solution only); phage 870 ng/well; 100% = SEQ 5 phage at 710 ng/well
BSA [9] = biological target: BSA (UniProt P02769); test: phage ELISA, control well (BSA blocking solution only); phage 3 ng/well; 100% = SEQ 5 phage at 710 ng/well
BSA [10] = biological target: BSA (UniProt P02769); test: phage ELISA, control well (BSA blocking solution only); phage 20 ng/well; 100% = SEQ 5 phage at 710 ng/well
BSA [11] = biological target: BSA (UniProt P02769); test: phage ELISA, control well (BSA blocking solution only); phage 122 ng/well; 100% = SEQ 5 phage at 710 ng/well
BSA [12] = biological target: BSA (UniProt P02769); test: phage ELISA, control well (BSA blocking solution only); phage 796 ng/well; 100% = SEQ 5 phage at 710 ng/well
BSA [13] = biological target: BSA (UniProt P02769); test: phage ELISA, control well (BSA blocking solution only); phage 18 ng/well; 100% = SEQ 5 phage at 710 ng/well
BSA [14] = biological target: BSA (UniProt P02769); test: phage ELISA, control well (BSA blocking solution only); phage 109 ng/well; 100% = SEQ 5 phage at 710 ng/well
BSA [15] = biological target: BSA (UniProt P02769); test: phage ELISA, control well (BSA blocking solution only); phage 710 ng/well; 100% = SEQ 5 phage at 710 ng/well

Sequence of BSA (P02769 25-607 limits assumed): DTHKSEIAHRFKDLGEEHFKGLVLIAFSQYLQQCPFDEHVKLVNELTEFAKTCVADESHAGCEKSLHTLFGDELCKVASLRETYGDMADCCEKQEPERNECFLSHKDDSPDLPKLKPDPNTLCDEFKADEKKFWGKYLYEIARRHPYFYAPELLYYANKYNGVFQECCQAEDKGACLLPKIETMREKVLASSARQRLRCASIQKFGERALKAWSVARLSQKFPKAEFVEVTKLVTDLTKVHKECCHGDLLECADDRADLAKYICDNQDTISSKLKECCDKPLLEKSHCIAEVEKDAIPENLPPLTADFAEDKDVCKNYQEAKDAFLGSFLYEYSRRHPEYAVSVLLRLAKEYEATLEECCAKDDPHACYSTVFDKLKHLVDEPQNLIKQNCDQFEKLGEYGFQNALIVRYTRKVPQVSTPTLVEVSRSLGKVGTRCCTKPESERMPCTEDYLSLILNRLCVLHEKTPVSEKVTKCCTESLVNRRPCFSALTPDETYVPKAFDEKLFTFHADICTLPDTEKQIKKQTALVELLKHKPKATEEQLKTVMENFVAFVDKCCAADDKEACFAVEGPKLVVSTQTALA

Binder | percentage of binding (BSA [1]) [%] | percentage of binding (BSA [2]) [%] | percentage of binding (BSA [3]) [%] | percentage of binding (BSA [4]) [%] | percentage of binding (BSA [5]) [%] | percentage of binding (BSA [6]) [%] | percentage of binding (BSA [7]) [%] | percentage of binding (BSA [8]) [%] | percentage of binding (BSA [9]) [%] | percentage of binding (BSA [10]) [%] | percentage of binding (BSA [11]) [%] | percentage of binding (BSA [12]) [%] | percentage of binding (BSA [13]) [%] | percentage of binding (BSA [14]) [%] | percentage of binding (BSA [15]) [%]
QIEPWFTPEDFP (peptide, not shown: large carriers) [phage presenting SEQ ID NO: 3 (…)] | 0 | 1 | 2 | 5 | 10 | 0 |  |  |  |  |  |  |  |  | 
TRLAPLVFPLDY (peptide, not shown: large carriers) [phage presenting SEQ ID NO: 4 (…)] | 0 | 0 | 1 |  |  | 0 | 4 | 10 |  |  |  |  |  |  | 
LWQPPLIPGIDF (peptide, not shown: large carriers) [phage presenting SEQ ID NO: 2 (…)] | 1 |  |  |  |  | 0 |  |  | 2 | 4 | 9 | 12 |  |  | 
SWLQMPWALVRT (peptide, not shown: large carriers) [phage presenting SEQ ID NO: 5 (…)] | 0 |  |  |  |  | 0 |  |  | 1 |  |  |  | 1 | 3 | 5
